Target: the molecule itself
Assay: negative-stain transmission electron microscopy

B1: light-dependent protochlorophyllide oxidoreductase (LPOR) isoform AtPORB (enzyme, Arabidopsis thaliana)
chain: QTAATSSPTVTKSVDGKKTLRKGNVVVTGASSGLGLATAKALAETGKWNVIMACRDFLKAERAAKSVGMPKDSYTVMHLDLASLDSVRQFVDNFRRTETPLDVLVCNAAVYFPTAKEPTYSAEGFELSVATNHLGHFLLARLLLDDLKKSDYPSKRLIIVGSITGNTNTLAGNVPPKANLGDLRGLAGGLNGLNSSAMIDGGDFDGAKAYKDSKVCNMLTMQEFHRRFHEETGVTFASLYPGCIASTGLFREHIPLFRALFPPFQKYITKGYVSETESGKRLAQVVSDPSLTKSGVYWSWNNASASFENQLSEEASDVEKARKVWEISEKLVGLA
  binding result: binds

— doi:10.1101/2024.10.21.619389 (bioRxiv, 2024)
